Experimental data taken from paper doi:10.1101/2022.05.21.492554.

Target: ACE2-Fc (UniProt Q9BYF1)
Experiment: SPR

Chain of ACE2-Fc (Q9BYF1 18-740): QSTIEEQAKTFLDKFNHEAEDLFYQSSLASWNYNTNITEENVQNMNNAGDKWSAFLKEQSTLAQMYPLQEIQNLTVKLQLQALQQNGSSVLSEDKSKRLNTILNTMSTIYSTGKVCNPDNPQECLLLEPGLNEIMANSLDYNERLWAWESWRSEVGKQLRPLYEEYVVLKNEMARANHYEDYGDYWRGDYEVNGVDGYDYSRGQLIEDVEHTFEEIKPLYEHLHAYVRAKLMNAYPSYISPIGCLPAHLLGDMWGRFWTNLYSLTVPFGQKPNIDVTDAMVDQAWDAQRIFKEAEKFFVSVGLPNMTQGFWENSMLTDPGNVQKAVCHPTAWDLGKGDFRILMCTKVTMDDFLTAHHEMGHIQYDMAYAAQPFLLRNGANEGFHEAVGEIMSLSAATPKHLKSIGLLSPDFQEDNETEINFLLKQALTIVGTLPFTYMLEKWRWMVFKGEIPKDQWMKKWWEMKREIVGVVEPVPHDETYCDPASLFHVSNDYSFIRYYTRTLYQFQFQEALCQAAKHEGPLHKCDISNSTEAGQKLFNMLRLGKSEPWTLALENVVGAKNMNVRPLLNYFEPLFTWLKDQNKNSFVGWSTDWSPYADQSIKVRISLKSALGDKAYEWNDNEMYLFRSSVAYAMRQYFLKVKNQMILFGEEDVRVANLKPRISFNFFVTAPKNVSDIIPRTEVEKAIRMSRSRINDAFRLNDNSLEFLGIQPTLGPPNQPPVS

Wuhan RBD
Kd: 7.3 nM
koff: 0.0051 s⁻¹
